Data reported in article PMC7006624.

Assays:
Assay in all cases: fluorescence polarization
[1] = target: CLIP-G (CLIP-tag-GCN4 bZIP fusion) (UniProt P03069); settings: no added NaCl; amino-C6-T (second T of TTTT loop); 40 mM Tris-HCl, 20 mM acetic acid, 12.5 mM MgCl2, 1 mM DTT, 1 uM ZnCl2, 100 nM calf thymus DNA, 0.02% Tween 20, pH 8.0, 25 C, with or without 200 mM NaCl
[2] = target: ZF-CLIP (zif268-CLIP-tag fusion) (UniProt P08046); settings: amino-C6-T (second T of TTTT loop), 40 mM Tris-HCl, 20 mM acetic acid, 12.5 mM MgCl2, 1 mM DTT, 1 uM ZnCl2, 100 nM calf thymus DNA, 0.02% Tween 20, pH 8.0, 25 C, with or without 200 mM NaCl
[3] = system: AZ-CLIP (AZP4-CLIP-tag fusion) (designed); settings: no added NaCl; amino-C6-T (second T of TTTT loop); 40 mM Tris-HCl, 20 mM acetic acid, 12.5 mM MgCl2, 1 mM DTT, 1 uM ZnCl2, 100 nM calf thymus DNA, 0.02% Tween 20, pH 8.0, 25 C, with or without 200 mM NaCl

Chain of ZF-CLIP (zif268-CLIP-tag fusion) (P08046 other isoform, or with tags, fused parts or gaps): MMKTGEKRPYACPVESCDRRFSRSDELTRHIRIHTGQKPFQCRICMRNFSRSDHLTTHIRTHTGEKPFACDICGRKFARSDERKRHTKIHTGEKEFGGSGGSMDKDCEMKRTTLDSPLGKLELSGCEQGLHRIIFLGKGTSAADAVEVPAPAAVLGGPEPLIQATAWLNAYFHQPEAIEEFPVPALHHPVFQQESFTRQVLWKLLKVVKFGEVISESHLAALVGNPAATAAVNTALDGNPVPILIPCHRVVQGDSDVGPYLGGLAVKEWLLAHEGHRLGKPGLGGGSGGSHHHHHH

**Q.** How did the Kd [1] turn out when “CGTTCATGACTCATGAGTTTTCTCATGAGTCATGAAC [A488-ODN-AP]” was run?
**A.** The Kd was 5.1 nM.

**Q.** And the Kd ([2]; no added NaCl)?
**A.** The Kd was over 1000 nM.

**Q.** “CGCGATGCCACGTAGCGTTTTCGCTACGTGGCATCGC [A488-ODN-AZ]” was tested. Which Kd [3] did it give?
**A.** Its Kd is 74 nM.

**Q.** What about the Kd [1] of the same sequence?
**A.** Its Kd is over 1000 nM.

**Q.** And the Kd ([2]; no added NaCl)?
**A.** Its Kd is over 1000 nM.

**Q.** “CGCGACGCCCACGCGCGTTTTCGCGCGTGGGCGTCGC [A488-ODN-ZF]” was tested. Which Kd [3] did it give?
**A.** The Kd was over 1000 nM.

**Q.** And the Kd [1]?
**A.** The Kd was over 1000 nM.

**Q.** And the Kd [2]?
**A.** Its Kd is 56 nM.

**Q.** And the Kd ([2]; no added NaCl)?
**A.** The Kd was 8.1 nM.
